Data taken from US8034913B2, “Recombinantly modified plasmin” (Grifols Therapeutics Inc., priority 2004, dated 2011).
Where “and” joins values, the source holds several entries; their conditions need not be identical. Equal values may be shown once. Read-outs that look alike come from different tables or passages of the source.

T1: α2-antiplasmin (Homo sapiens, UniProt P08697)
T1 sequence (P08697 40-491): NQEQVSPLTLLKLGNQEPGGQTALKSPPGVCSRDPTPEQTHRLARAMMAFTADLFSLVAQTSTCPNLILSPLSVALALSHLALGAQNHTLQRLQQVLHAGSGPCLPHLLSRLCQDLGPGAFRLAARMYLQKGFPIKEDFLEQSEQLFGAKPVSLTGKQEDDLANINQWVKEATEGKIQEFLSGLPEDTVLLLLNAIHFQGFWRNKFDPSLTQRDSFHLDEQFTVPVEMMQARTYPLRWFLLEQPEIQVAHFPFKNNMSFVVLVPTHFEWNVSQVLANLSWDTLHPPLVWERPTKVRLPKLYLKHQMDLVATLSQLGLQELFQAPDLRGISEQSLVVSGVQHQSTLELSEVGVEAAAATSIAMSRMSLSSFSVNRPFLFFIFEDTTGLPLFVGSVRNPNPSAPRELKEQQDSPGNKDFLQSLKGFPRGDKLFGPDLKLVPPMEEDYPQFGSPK

T2: α2-macroglobulin (Homo sapiens, UniProt P01023)
T2 sequence (P01023 24-1474): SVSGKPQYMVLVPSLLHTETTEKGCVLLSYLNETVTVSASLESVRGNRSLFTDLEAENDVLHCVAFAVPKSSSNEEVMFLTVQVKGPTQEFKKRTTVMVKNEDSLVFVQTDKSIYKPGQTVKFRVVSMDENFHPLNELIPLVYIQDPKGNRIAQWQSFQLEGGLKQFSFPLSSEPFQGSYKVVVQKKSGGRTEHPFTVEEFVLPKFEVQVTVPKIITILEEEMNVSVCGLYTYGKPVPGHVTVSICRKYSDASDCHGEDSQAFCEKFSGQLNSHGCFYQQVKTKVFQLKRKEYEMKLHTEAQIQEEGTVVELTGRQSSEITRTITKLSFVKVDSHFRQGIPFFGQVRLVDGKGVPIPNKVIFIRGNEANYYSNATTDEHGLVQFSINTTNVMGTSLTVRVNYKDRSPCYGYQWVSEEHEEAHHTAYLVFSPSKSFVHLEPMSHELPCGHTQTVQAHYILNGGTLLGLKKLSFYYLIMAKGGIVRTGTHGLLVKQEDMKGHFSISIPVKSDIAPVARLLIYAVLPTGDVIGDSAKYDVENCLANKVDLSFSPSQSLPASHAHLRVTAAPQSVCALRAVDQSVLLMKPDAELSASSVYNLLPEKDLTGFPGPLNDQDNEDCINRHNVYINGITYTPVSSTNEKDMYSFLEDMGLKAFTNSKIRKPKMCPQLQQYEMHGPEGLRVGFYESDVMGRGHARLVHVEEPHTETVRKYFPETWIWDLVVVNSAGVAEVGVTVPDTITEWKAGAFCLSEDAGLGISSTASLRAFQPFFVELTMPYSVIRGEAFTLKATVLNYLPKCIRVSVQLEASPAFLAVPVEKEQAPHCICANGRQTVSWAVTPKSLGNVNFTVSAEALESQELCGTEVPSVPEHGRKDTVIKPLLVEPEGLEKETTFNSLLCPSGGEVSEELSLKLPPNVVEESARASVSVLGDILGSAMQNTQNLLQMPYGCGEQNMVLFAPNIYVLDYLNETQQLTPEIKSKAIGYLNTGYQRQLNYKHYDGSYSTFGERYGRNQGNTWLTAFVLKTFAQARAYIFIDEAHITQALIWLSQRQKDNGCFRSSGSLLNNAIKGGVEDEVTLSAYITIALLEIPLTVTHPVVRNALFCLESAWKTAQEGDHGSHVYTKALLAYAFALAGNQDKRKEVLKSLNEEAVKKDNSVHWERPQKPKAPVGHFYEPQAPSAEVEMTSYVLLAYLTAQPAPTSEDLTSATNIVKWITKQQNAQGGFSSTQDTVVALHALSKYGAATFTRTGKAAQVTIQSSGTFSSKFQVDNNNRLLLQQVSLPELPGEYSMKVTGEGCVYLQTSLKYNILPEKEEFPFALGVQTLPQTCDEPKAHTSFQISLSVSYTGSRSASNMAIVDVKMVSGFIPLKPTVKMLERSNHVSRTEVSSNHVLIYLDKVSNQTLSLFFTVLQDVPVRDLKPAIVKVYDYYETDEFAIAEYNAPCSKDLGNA


Columns and labels:
urokinase [1] = biological target: T3, urokinase (Homo sapiens, UniProt P00749); conditions: urokinase activation; Wohl et al. 1980; read-out: Km, literature value; cited from earlier work
urokinase [2] = biological target: T3, urokinase; assay: Kinetics of urokinase activation of plasminogen species (S-2251 coupled assay, method of Wohl et al.); format: biochemical; conditions: 5.8 nM urokinase, 1 mM S-2251, 37° C., pH 7.5
Experimental: Increases in absorbance were monitored at 405 nm.
Activation of delta-plasminogen to delta-plasmin was complete within 3 minutes under these conditions. Very similar results were obtained with tPA and streptokinase.
Data were fit to a Michaelis-Menten kinetic model using Lineweaver-Burk analysis, resulting in the values below: […]

α2-antiplasmin [3] = biological target: T1, α2-antiplasmin; conditions: literature value, Anonick et al. 1990; cited from earlier work
[4] = system: retracted whole human blood clots; assay: In vitro model of catheter-assisted thrombolysis, lysis of retracted whole-blood clots; conditions: single 1-ml dose injected into clot, 60 min at 37° C.; delta-plasmin 0.44 mg, plasmin 1.0 mg (equimolar)
Experimental: FIG. 11 is a graphic representation of delta-plasmin-induced lysis of retracted whole-blood clots. Each clot (0.8×7 cm) was injected with a 1 ml volume of vehicle (acidified saline, pH 3.6), plasmin (1.0 mg/ml), or delta-plasmin (0.44 mg/ml), and clot dissolution was allowed to proceed at 37° C. for 1 hour.
The thrombolytic efficacy of delta-plasmin was tested in an in vitro model of catheter-assisted thrombolysis (Novokhatny, V. et al., J Thromb Haemost., 1(5):1034-41 (2003), incorporated by reference) using the following experimental protocol.
Fresh whole human blood was collected into 20×0.95 cm glass tubes and allowed to clot spontaneously without additives. Tubes were incubated for 20 hr at 37° C. to allow full retraction. Retracted clots were separated from serum using USA Standard testing sieves D16 with 14 mesh, and their weights were determined. […]
Single 1-ml doses of acidified saline, plasmin, or delta-plasmin were injected into the clot using a syringe. […] After the incubation, the clots were placed again on the sieve to remove the liquefied material and the weight of the digested clots was measured. The extent of clot lysis was determined from the difference between the initial clot weight and the weight of residual clot and was expressed as a percent of clot weight reduction.

[5] = Amidolytic activity, steady-state kinetics with substrate S-2251; format: biochemical; conditions: S-2251, PBS buffer, pH 7.4, 25° C.; for kcat: delta-plasmin corrected for percent active sites
α2-macroglobulin = biological target: T2, α2-macroglobulin; assay: Rate of inhibition by α2-macroglobulin (method of Anonick et al.); format: biochemical; conditions: 22° C. in PBS buffer, pH 7.4
Experimental: The rate of inhibition of delta-plasmin by α2-macroglobulin was measured using the method of Anonick et al. (Anonick, P., et al., Thrombosis Res. 59:449-462 (1990)).
(§1) Literature values are taken from Anonick, et al., Thrombosis Res. 59:449 (1990). All rates were measured according to the methods published in Anonick, et al.

α2-antiplasmin [6] = biological target: T1, α2-antiplasmin; assay: Rate of inhibition by α2-antiplasmin (method of Wiman and Collen, S-2251 activity at time points); format: biochemical; conditions: 22° C. in PBS buffer, pH 7.4
Experimental: as §1

Row | inhibition rate by α2-macroglobulin (α2-macroglobulin) | Molecule | Km (urokinase [1]) [µM] | Km (urokinase [2]) [µM] | kcat (urokinase [2]) [s⁻¹] | inhibition rate by α2-antiplasmin (lit.) (α2-antiplasmin [3]) | clot weight reduction [4] [%] | Km [5] [µM] | kcat [5] [s⁻¹] | kcat ([5]; listed as full-length plasmin) [s⁻¹] | inhibition rate by α2-antiplasmin (α2-antiplasmin [6])
1 |  | Plasminogen: human plasminogen, single-chain protein containing 791 amino acid residues | 1.7 | 1.2 | 0.0383 ± 0.005 |  |  |  |  |  | 
2 | 6.5 +/− 0.5 × 10^5 M^−1s^−1 | plasmin: two-chain, disulfide-linked serine protease from activation of plasminogen (antibody) heavy: EPLDDYVNTQGASLFSVTKKQLGAGSIEECAAKCEEDEEFTCRAFQYHSKEQQCVIMAENRKSSIIIRMRDVVLFEKKVYLSECKTGNGKNYRGTMSKTKNGITCQKWSSTSPHRPRFSPATHPSEGLEENYCRNPDNDPQGPWCYTTDPEKRYDYCDILECEEECMHCSGENYDGKISKTMSGLECQAWDSQSPHAHGYIPSKFPNKNLKKNYCRNPDRELRPWCFTTDPNKRWELCDIPRCTTPPPSSGPTYQCLKGTGENYRGNVAVTVSGHTCQHWSAQTPHTHNRTPENFPCKNLDENYCRNPDGKRAPWCHTTNSQVRWEYCKIPSCDSSPVSTEQLAPTAPPELTPVVQDCYHGDGQSYRGTSSTTTTGKKCQSWSSMTPHRHQKTPENYPNAGLTMNYCRNPDADKGPWCFTTDPSVRWEYCNLKKCSGTEASVVAPPPVVLLPDVETPSEEDCMFGNGKGYRGKRATTVTGTPCQDWAAQEPHRHSIFTPETNPRAGLEKNYCRNPDGDVGGPWCYTTNPRKLYDYCDVPQCAAPSFDCGKPQVEPKKCPGR light: VVGGCVAHPHSWPWQVSLRTRFGMHFCGGTLISPEWVLTAAHCLEKSPRPSSYKVILGAHQEVNLEPHVQEIEVSRLFLEPTRKDIALLKLSSPAVITDKVIPACLPSPNYVVADRTECFITGWGETQGTFGAGLLKEAQLPVIENKVCNRYEFLNGRVQSTELCAGHLAGGTDSCQGDSGGPLVCFEKDKYILQGVTSWGLGCARPNKPGVYVRVSRFVTWIEGVMRNN |  |  |  | 2.5×10^7 M^−1s^−1 and 2.5 +/− 0.5 × 10^7 M^−1s^−1 | 50 | 193 | 12.7 ± 0.383 | 12.7 ± 0.383 | 
3 | 7.5 +/− 0.3 × 10^5 M^−1s^−1 | mini-plasmin: activated mini-plasminogen (Val443-Asn791), fifth kringle and serine protease domain (K5-SP) (protein) chain 1: VAPPPVVLLPDVETPSEEDCMFGNGKGYRGKRATTVTGTPCQDWAAQEPHRHSIFTPETNPRAGLEKNYCRNPDGDVGGPWCYTTNPRKLYDYCDVPQCAAPSFDCGKPQVEPKKCPGR chain 2: VVGGCVAHPHSWPWQVSLRTRFGMHFCGGTLISPEWVLTAAHCLEKSPRPSSYKVILGAHQEVNLEPHVQEIEVSRLFLEPTRKDIALLKLSSPAVITDKVIPACLPSPNYVVADRTECFITGWGETQGTFGAGLLKEAQLPVIENKVCNRYEFLNGRVQSTELCAGHLAGGTDSCQGDSGGPLVCFEKDKYILQGVTSWGLGCARPNKPGVYVRVSRFVTWIEGVMRNN |  |  |  |  |  | 160 | 12.8 ± 1.17 |  | 2.4×10^5 M^−1s^−1 and 2.4 +/− 0.5 × 10^5 M^−1s^−1
4 | 7.8 +/− 0.6 × 10^5 M^−1s^−1 | micro-plasmin: plasmin species lacking all five kringles (protein) APSFDCGKPQVEPKKCPGRVVGGCVAHPHSWPWQVSLRTRFGMHFCGGTLISPEWVLTAAHCLEKSPRPSSYKVILGAHQEVNLEPHVQEIEVSRLFLEPTRKDIALLKLSSPAVITDKVIPACLPSPNYVVADRTECFITGWGETQGTFGAGLLKEAQLPVIENKVCNRYEFLNGRVQSTELCAGHLAGGTDSCQGDSGGPLVCFEKDKYILQGVTSWGLGCARPNKPGVYVRVSRFVTWIEGVMRNN |  |  |  |  |  | 145 | 13.2 ± 0.4 |  | 1.8×10^5 M^−1s^−1 and 3.1×10^5 M^−1s^−1 and 1.8 +/− 0.2 × 10^5 M^−1s^−1
